In the supplement of paper PMC10567573:

B1: SCNN1D (parent)
chain: RRPSPVLRHLELLDEFARENIDSL

Variants of: B1
Assay: protein stability index of a GFP-peptide fusion (GPS, HEK-293T) (PSI 1-6); higher = more stable
Conditions: c terminus: a fixed tail appended
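Also: lentivirally expressed fusions sorted by FACS into six bins by GFP to DsRed ratio, PSI derived from sequencing read proportions per bin multiplied by bin number.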

**Q.** For RRPSTVLRHLELLDEFARENIDSL [P5T], which protein stability index is on record?
**A.** 3.05

**Q.** With RRPSSVLRHLELLDEFARENIDSL [P5S] as the variant, how does the protein stability index read?
**A.** 2.85

**Q.** For RRPSRVLRHLELLDEFARENIDSL [P5R], which protein stability index is on record?
**A.** 3.63

**Q.** With RRPSVVLRHLELLDEFARENIDSL [P5V] as the variant, how does the protein stability index read?
**A.** 2.43

**Q.** For RRPSWVLRHLELLDEFARENIDSL [P5W], which protein stability index is on record?
**A.** 1.93

**Q.** Which protein stability index does the source give for RRPSYVLRHLELLDEFARENIDSL [P5Y] here?
**A.** 2.65

**Q.** With RRPSPVLRHLENLDEFARENIDSL [L12N] as the variant, how does the protein stability index read?
**A.** 3.9

**Q.** With RRPSPVLRHLEILDEFARENIDSL [L12I] as the variant, how does the protein stability index read?
**A.** 3.65

**Q.** With RRPSPVLRHLEKLDEFARENIDSL [L12K] as the variant, how does the protein stability index read?
**A.** 4.1

**Q.** Which protein stability index does the source give for RRPSPVLRHLESLDEFARENIDSL [L12S] here?
**A.** 4.4

**Q.** For RRPSPVLRHLEWLDEFARENIDSL [L12W], which protein stability index is on record?
**A.** 3.1

**Q.** Which protein stability index does the source give for RRPSPVLRHLEHLDEFARENIDSL [L12H] here?
**A.** 4.25

**Q.** With RRPSPVLRHLEQLDEFARENIDSL [L12Q] as the variant, how does the protein stability index read?
**A.** 4.51

**Q.** Which protein stability index does the source give for RRPSPVLRHLEYLDEFARENIDSL [L12Y] here?
**A.** 3.56

**Q.** Which protein stability index does the source give for RRPSPVLRHLEGLDEFARENIDSL [L12G] here?
**A.** 4.09

**Q.** For RRPSPVLRHLEVLDEFARENIDSL [L12V], which protein stability index is on record?
**A.** 4.05

**Q.** With RRPSPVLRHLECLDEFARENIDSL [L12C] as the variant, how does the protein stability index read?
**A.** 3.97

**Q.** For RRPSPVLRHLEDLDEFARENIDSL [L12D], which protein stability index is on record?
**A.** 4.64

**Q.** With RRPSPVLRHLERLDEFARENIDSL [L12R] as the variant, how does the protein stability index read?
**A.** 3.63

**Q.** For RRPSPVLRHLEPLDEFARENIDSL [L12P], which protein stability index is on record?
**A.** 4.4

**Q.** Which protein stability index does the source give for RRPSPVLRHLEMLDEFARENIDSL [L12M] here?
**A.** 3.98

**Q.** For RRPSPVLRHLETLDEFARENIDSL [L12T], which protein stability index is on record?
**A.** 4.35

**Q.** Which protein stability index does the source give for RRPSPVLRHLEFLDEFARENIDSL [L12F] here?
**A.** 2.81

**Q.** With RRPSPVLRHLEALDEFARENIDSL [L12A] as the variant, how does the protein stability index read?
**A.** 3.81

**Q.** Which protein stability index does the source give for RRPSPVLRHLEELDEFARENIDSL [L12E] here?
**A.** 4.08

**Q.** For RRPSPVLRHLELLFEFARENIDSL [D14F], which protein stability index is on record?
**A.** 1.42

**Q.** For RRPSPVLRHLELLREFARENIDSL [D14R], which protein stability index is on record?
**A.** 2.27

**Q.** With RRPSPVLRHLELLQEFARENIDSL [D14Q] as the variant, how does the protein stability index read?
**A.** 2.94

**Q.** Which protein stability index does the source give for RRPSPVLRHLELLYEFARENIDSL [D14Y] here?
**A.** 2

**Q.** For RRPSPVLRHLELLGEFARENIDSL [D14G], which protein stability index is on record?
**A.** 2.83

**Q.** For RRPSPVLRHLELLPEFARENIDSL [D14P], which protein stability index is on record?
**A.** 2.92

**Q.** Which protein stability index does the source give for RRPSPVLRHLELLSEFARENIDSL [D14S] here?
**A.** 2.16

**Q.** Which protein stability index does the source give for RRPSPVLRHLELLAEFARENIDSL [D14A] here?
**A.** 1.67

**Q.** With RRPSPVLRHLELLLEFARENIDSL [D14L] as the variant, how does the protein stability index read?
**A.** 2.86

**Q.** With RRPSPVLRHLELLNEFARENIDSL [D14N] as the variant, how does the protein stability index read?
**A.** 2.74

**Q.** With RRPSPVLRHLELLKEFARENIDSL [D14K] as the variant, how does the protein stability index read?
**A.** 1.8

**Q.** With RRPSPVLRHLELLEEFARENIDSL [D14E] as the variant, how does the protein stability index read?
**A.** 2.56

**Q.** Which protein stability index does the source give for RRPSPVLRHLELLWEFARENIDSL [D14W] here?
**A.** 1.44

**Q.** For RRPSPVLRHLELLTEFARENIDSL [D14T], which protein stability index is on record?
**A.** 2.21

**Q.** Which protein stability index does the source give for RRPSPVLRHLELLHEFARENIDSL [D14H] here?
**A.** 2.5

**Q.** Which protein stability index does the source give for RRPSPVLRHLELLIEFARENIDSL [D14I] here?
**A.** 1.78

**Q.** For RRPSPVLRHLELLMEFARENIDSL [D14M], which protein stability index is on record?
**A.** 2.6

**Q.** Which protein stability index does the source give for RRPSPVLRHLELLVEFARENIDSL [D14V] here?
**A.** 1.37

**Q.** With RRPSPVLRHLELLCEFARENIDSL [D14C] as the variant, how does the protein stability index read?
**A.** 1.59

**Q.** For RRPSPVIRHLELLDEFARENIDSL [L7I], which protein stability index is on record?
**A.** 3.1

**Q.** With RRPSPVDRHLELLDEFARENIDSL [L7D] as the variant, how does the protein stability index read?
**A.** 4.49

**Q.** For RRPSPVHRHLELLDEFARENIDSL [L7H], which protein stability index is on record?
**A.** 3.4

**Q.** Which protein stability index does the source give for RRPSPVFRHLELLDEFARENIDSL [L7F] here?
**A.** 3.29

**Q.** Which protein stability index does the source give for RRPSPVQRHLELLDEFARENIDSL [L7Q] here?
**A.** 3.4

**Q.** Which protein stability index does the source give for RRPSPVPRHLELLDEFARENIDSL [L7P] here?
**A.** 4.08

**Q.** With RRPSPVRRHLELLDEFARENIDSL [L7R] as the variant, how does the protein stability index read?
**A.** 3.64

**Q.** With RRPSPVGRHLELLDEFARENIDSL [L7G] as the variant, how does the protein stability index read?
**A.** 4.17

**Q.** For RRPSPVMRHLELLDEFARENIDSL [L7M], which protein stability index is on record?
**A.** 2.9

**Q.** Which protein stability index does the source give for RRPSPVNRHLELLDEFARENIDSL [L7N] here?
**A.** 3.6

**Q.** With RRPSPVERHLELLDEFARENIDSL [L7E] as the variant, how does the protein stability index read?
**A.** 3.53

**Q.** With RRPSPVTRHLELLDEFARENIDSL [L7T] as the variant, how does the protein stability index read?
**A.** 3.48

**Q.** For RRPSPVCRHLELLDEFARENIDSL [L7C], which protein stability index is on record?
**A.** 3.53

**Q.** Which protein stability index does the source give for RRPSPVARHLELLDEFARENIDSL [L7A] here?
**A.** 3.04

**Q.** With RRPSPVSRHLELLDEFARENIDSL [L7S] as the variant, how does the protein stability index read?
**A.** 3.38

**Q.** For RRPSPVYRHLELLDEFARENIDSL [L7Y], which protein stability index is on record?
**A.** 3.24

**Q.** For RRPSPVWRHLELLDEFARENIDSL [L7W], which protein stability index is on record?
**A.** 2.18

**Q.** With RRPSPVVRHLELLDEFARENIDSL [L7V] as the variant, how does the protein stability index read?
**A.** 3.1

**Q.** Which protein stability index does the source give for RRPSPVKRHLELLDEFARENIDSL [L7K] here?
**A.** 3.82

**Q.** For RRPSPVLRHLELLDHFARENIDSL [E15H], which protein stability index is on record?
**A.** 2.92

**Q.** For RRPSPVLRHLELLDAFARENIDSL [E15A], which protein stability index is on record?
**A.** 2.97

**Q.** Which protein stability index does the source give for RRPSPVLRHLELLDKFARENIDSL [E15K] here?
**A.** 2.82

**Q.** Which protein stability index does the source give for RRPSPVLRHLELLDPFARENIDSL [E15P] here?
**A.** 3.02

**Q.** For RRPSPVLRHLELLDMFARENIDSL [E15M], which protein stability index is on record?
**A.** 2.18

**Q.** With RRPSPVLRHLELLDNFARENIDSL [E15N] as the variant, how does the protein stability index read?
**A.** 3.41

**Q.** With RRPSPVLRHLELLDGFARENIDSL [E15G] as the variant, how does the protein stability index read?
**A.** 3.34

**Q.** With RRPSPVLRHLELLDDFARENIDSL [E15D] as the variant, how does the protein stability index read?
**A.** 3.21

**Q.** With RRPSPVLRHLELLDFFARENIDSL [E15F] as the variant, how does the protein stability index read?
**A.** 2.03

**Q.** Which protein stability index does the source give for RRPSPVLRHLELLDLFARENIDSL [E15L] here?
**A.** 1.76

**Q.** Which protein stability index does the source give for RRPSPVLRHLELLDIFARENIDSL [E15I] here?
**A.** 2.72

**Q.** With RRPSPVLRHLELLDCFARENIDSL [E15C] as the variant, how does the protein stability index read?
**A.** 2.94

**Q.** For RRPSPVLRHLNLLDEFARENIDSL [E11N], which protein stability index is on record?
**A.** 3.5

**Q.** Which protein stability index does the source give for RRPSPVLRHLPLLDEFARENIDSL [E11P] here?
**A.** 3.75

**Q.** For RRPSPVLRHLVLLDEFARENIDSL [E11V], which protein stability index is on record?
**A.** 2.56

**Q.** For RRPSPVLRHLCLLDEFARENIDSL [E11C], which protein stability index is on record?
**A.** 2.01

**Q.** Which protein stability index does the source give for RRPSPVLRHLMLLDEFARENIDSL [E11M] here?
**A.** 2.14

**Q.** Which protein stability index does the source give for RRPSPVLRHLRLLDEFARENIDSL [E11R] here?
**A.** 2.96

**Q.** With RRPSPVLRHLLLLDEFARENIDSL [E11L] as the variant, how does the protein stability index read?
**A.** 1.41

**Q.** With RRPSPVLRHLFLLDEFARENIDSL [E11F] as the variant, how does the protein stability index read?
**A.** 1.89

**Q.** Which protein stability index does the source give for RRPSPVLRHLYLLDEFARENIDSL [E11Y] here?
**A.** 2.25

**Q.** Which protein stability index does the source give for RRPSPVLRHLGLLDEFARENIDSL [E11G] here?
**A.** 4.33

**Q.** For RRPSPVLRHLDLLDEFARENIDSL [E11D], which protein stability index is on record?
**A.** 3.55

**Q.** Which protein stability index does the source give for RRPSPVLRHLWLLDEFARENIDSL [E11W] here?
**A.** 2.49

**Q.** For RRPSPVLRHLKLLDEFARENIDSL [E11K], which protein stability index is on record?
**A.** 2.83

**Q.** With RRPSPVLRHLQLLDEFARENIDSL [E11Q] as the variant, how does the protein stability index read?
**A.** 3.06

**Q.** With RRPSPVLRHLTLLDEFARENIDSL [E11T] as the variant, how does the protein stability index read?
**A.** 2.41

**Q.** For RRPSPVLRHLALLDEFARENIDSL [E11A], which protein stability index is on record?
**A.** 3.1

**Q.** Which protein stability index does the source give for RRPSPVLRHLILLDEFARENIDSL [E11I] here?
**A.** 1.9

**Q.** With RRPSPVLRHLHLLDEFARENIDSL [E11H] as the variant, how does the protein stability index read?
**A.** 3.18

**Q.** With RRPSPVLRHLSLLDEFARENIDSL [E11S] as the variant, how does the protein stability index read?
**A.** 3.25
